In the experiment the target is purified recombinant human α-synuclein (N-terminal histidine tagged) (human, UniProt P37840 1-140). In words: SPR; Biacore 3000; about 1500 RU of α-synuclein amine-coupled to a CM5 chip; peptides in two-fold dilutions (0.20-12.50 µM, in duplicate) injected 3 min at 30 µl/min, then 3 min dissociation; HBS pH 7.4 (10 mM HEPES, 150 mM NaCl, 3 mM EDTA, 0.005% P20); double-referenced; report points 20 s into dissociation (200 s). The conditions noted are these: both partners purified.

B1: Tat-βsyn-degron peptide (peptide)
peptide: YGRKKRRQRRRRTKSGVYLVGRRRG
notes: Tat plasma membrane transduction domain (HIV-1 Tat stretch); degron, proteasomal targeting signal; also called α-synuclein knockdown peptide; α-synuclein targeting peptide; source: synthetic peptide (GL Biochem, Shanghai)
Regarding B1, the binding result is reported as “binds”.

The values are drawn from article PMC7895943 (Communications Biology, 2021).
